Reference: publication PMC5322387 (2017)

B1: PDK1 (protein)
chain: not shown
modifications: lipoylated, DANS-As-labeled L1
B2: PDK3 (protein)
chain: not shown
modifications: L2 lipoylation Lys to Ala, lipoylated, DANS-As-labeled
B3: PDK4 (protein)
chain: not shown
modifications: lipoylated, DANS-As-labeled L1
B4: PDK1 (protein)
chain: not shown
modifications: L1 lipoylation Lys to Ala, lipoylated, DANS-As-labeled
B5: PDK3 (protein)
chain: not shown
modifications: lipoylated, DANS-As-labeled L1
B6: PDK4 (protein)
chain: not shown
modifications: lipoylated, DANS-As-labeled L2S
B7: PDK1 (protein)
chain: not shown
modifications: lipoylated, DANS-As-labeled L2S
B8: E2 L1L2S-ML1 L1L2S tridomain (protein)
chain: HQKVPLPSLSPTMQAGTIARWEKKEGDKINEGDLIAEVETDKATVGFESLEECYMAKILVAEGTRDVPIGAIICITVGKPEDIEAFKNYTLDSSAAPTPQAAPAPTPAATASPPTPSAQAPGSSYPPHMQVLLPALSPTMTMGTVQRWEKKVGEKLSEGDLLAEIETDKATIGFEVQEEGYLAKILVPEGTRDVPLGTPLCIIVEKEADISAFADYRPTEVTDLKPQVPPPTPPPVAAVPPTPQPLAPTPSAPCPATPAGPKGRVFVSPLAKKLAVEKGIDLTQVKGTGPDGRITKKDIDSFV
B9: E2 L1L2S-ML2 L1L2S tridomain (protein)
chain: B8 chain
B10: PDK3 (protein)
chain: not shown
modifications: lipoylated, DANS-As-labeled L3S'
B11: PDK3 (protein)
chain: not shown
modifications: lipoylated, DANS-As-labeled L2S
B12: E3BP L3S' L3S' didomain (protein)
chain: PIKILMPSLSPTMEEGNIVKWLKKEGEAVSAGDALCEIETDKAVVTLDASDDGILAKIVVEEGSKNIRLGSLIGLIVEEGEDWKHVEIPKDVGPPPPVSKPSEPRPSPEPQISIPVKKEHIPGTLRFRLSPAARNILEKHSLDASQGTATGPRGIFTKEDALKLV
B13: PDK4 (protein)
chain: not shown
modifications: L2 lipoylation Lys to Ala, lipoylated, DANS-As-labeled
B14: PDK4 (protein)
chain: not shown
modifications: lipoylated, DANS-As-labeled L3S'
B15: PDK1 (protein)
chain: not shown
modifications: L2 lipoylation Lys to Ala, lipoylated, DANS-As-labeled
B16: E2 L2S L2S didomain (protein)
chain: HMQVLLPALSPTMTMGTVQRWEKKVGEKLSEGDLLAEIETDKATIGFEVQEEGYLAKILVPEGTRDVPLGTPLCIIVEKEADISAFADYRPTEVTDLKPQVPPPTPPPVAAVPPTPQPLAPTPSAPCPATPAGPKGRVFVSPLAKKLAVEKGIDLTQVKGTGPDGRITKKDIDSFV
B17: PDK3 (protein)
chain: not shown
modifications: L1 lipoylation Lys to Ala, lipoylated, DANS-As-labeled
B18: PDK4 (protein)
chain: not shown
modifications: dapoxyl-labeled L3S'
B19: E2 L1 L1 lipoyl domain (protein)
chain: HQKVPLPSLSPTMQAGTIARWEKKEGDKINEGDLIAEVETDKATVGFESLEECYMAKILVAEGTRDVPIGAIICITV
B20: PDK4 (protein)
chain: not shown
modifications: L1 lipoylation Lys to Ala, lipoylated, DANS-As-labeled

Columns and labels:
[1] = biological target: B19; experiment: fluorescence titration
[2] = biological target: B9; experiment: fluorescence titration
[3] = biological target: B8; experiment: fluorescence titration
[4] = biological target: B16; experiment: fluorescence titration
[5] = biological target: T1, PDK2 (Homo sapiens, UniProt Q15119); experiment: fluorescence titration
[6] = biological target: B12; experiment: fluorescence titration (quenching)
[7] = biological target: T1, PDK2; experiment: fluorescence titration (quenching)
[8] = biological target: B12; experiment: fluorescence titration

Binder: B1
Kd [1]: 4430 nM

Binder: B2
Kd [2]: 396 nM

Binder: B3
Kd [1]: 350 nM

Binder: B4
Kd [3]: 2100 nM

Binder: B5
Kd [1]: 620 nM

Binder: B6
Kd [4]: 2070 nM

Binder: B7
Kd [4]: 17100 nM

Binder: B8
Kd [5]: 890 nM

Binder: B9
Kd [5]: 640 nM

Binder: B10
Kd [6]: 103 nM

Binder: B11
Kd [4]: 1210 nM

Binder: B12
Kd [5]: 2070 nM
Kd [7]: 25 nM

Binder: B13
Kd [2]: 397 nM

Binder: B14
Kd [8]: 5930 nM

Binder: B15
Kd [2]: 3620 nM

Binder: B16
Kd [5]: 1380 nM

Binder: B17
Kd [3]: 540 nM

Binder: B18
Kd [8]: 5020 nM

Binder: B19
Kd [5]: 910 nM

Binder: B20
Kd [3]: 270 nM
